According to PMC10501769 (eLife, 2023):

Biological target: the molecule itself
Assay: SEC

B1: His-tagged Rv0158 protein of Mycobacterium tuberculosis H37Rv (natural protein)
chain: MPSDTSPNGLSRREELLAVATKLFAARGYHGTRMDDVADVIGLNKATVYHYYASKSLILFDIYRQAAEGTLAAVHDDPSWTAREALYQYTVRLLTAIASNPERAAVYFQEQPYITEWFTSEQVAEVREKEQQVYEHVHGLIDRGIASGEFYECDSHVVALGYIGMTLGSYRWLRPSGRRTAKEIAAEFSTALLRGLIRDESIRNQSPLGTRKET
notes: also called Histidine-tagged Rv0158; hexahistidine-tagged Rv0158 protein
  stoichiometry N: 2
